The text below walks through data of publication PMC8098473, “Structural basis of chitin utilization by a GH20 β-N-acetylglucosaminidase from Vibrio campbellii strain ATCC BAA-1116” (Acta Crystallographica. Section D, Structural Biology, 2021).

By Km is commonly meant the concentration of substrate that gives half-maximal velocity. A word on the kcat: it is the number of substrate molecules converted per active site and unit of time at saturation.

To fix the notation:
B1: VhGlcNAcase (Vibrio harveyi) (protein)
chain: MGGSEYRVDLVVLSEQKQNCRFGLTFHNLSDQDLNSWGLTFAFDRYILPDSVSNGQLTQIGSFCTLKPEGIVLAANHHYYCEFSIGSNPFRYYSDGFNEAMIDFVVDGQPQRAQVDVTPIVLASPYRERSDIPASLTHAQPLLPKPNHIEVSDHSFTFDEQAGVAIYTDLANSAKAWLLEELQRIHQFTLSSSNSGKIIFKSNPTLDEGAYKLKVSEESIKIEAGSSSGFTHACATLLQLLKRDEATKTMEAVCCSIIDSPRFRYRGMMLDCARHFHSVEQVKRLINLLAHYKLNTFHWHLTDDEGWRVEIKSLPQLTEIGAWRGIDETIEPQYTHLSQRYGGFYTQEEIRDVIAFAEQRGITIIPEIDVPGHCRAAIKSLPHLLIEAEDTTEYRSIQHYNDNVINPALPGSYEFIDKVLEEIAALFPAPYVHIGADEVPNGVWSKSPACQALMEQLGYTDYKELQGHFLRHAEDKLRKLGKRMLGWEEAQHGNKVSKDTVIYSWLSEEAALNCARQGFDVVLQPAQTTYLDMTQDYAPEEPGVDWANPLPLEKAYNYEPLAEVPADDPIRKRIWGIQTALWCEIINNPSRMDYMIFPRLTAMAEACWTEKQHRDWTDYLSRLKGHLPLLDLQGVNYRKPWK

The test system of one data set is CC(=O)N[C@H]1[C@H](Oc2ccc([N+](=O)[O-])cc2)O[C@H](CO)[C@@H](O)[C@@H]1O. Briefly: purified protein. The note with it: 100 mM sodium phosphate pH 7.0, 37°C, 10 min, 0–500 µM substrate. Format: biochemical, Vibrio harveyi.
Consider VhGlcNAcase (Vibrio harveyi; D303A), for which the Km was 302 ± 28 µM and the kcat came out at 1.4 ± 0.07 s⁻¹.
Turning to VhGlcNAcase (Vibrio harveyi; D303N), the Km is listed as 325 ± 30 µM and the turnover number (kcat) was determined as 1.8 ± 0.08 s⁻¹.
In the case of VhGlcNAcase (Vibrio harveyi; D437N), the Km was determined as 339 ± 47 µM and the kcat was 0.02 ± 0.001 s⁻¹.
Regarding VhGlcNAcase (Vibrio harveyi; D532A), the Km is on record as 153 ± 9 µM and the kcat stood at 1.6 ± 0.03 s⁻¹.
On to VhGlcNAcase (Vibrio harveyi; E438A), for which the Km amounted to 128 ± 16 µM and the kcat was determined as 0.11 ± 0.005 s⁻¹.
For VhGlcNAcase (Vibrio harveyi; E438Q), the Km was 120 ± 13 µM and the kcat amounted to 0.13 ± 0.005 s⁻¹.
With VhGlcNAcase (Vibrio harveyi; E584A), the Km amounted to 178 ± 20 µM and the kcat was found to be 18 ± 0.7 s⁻¹.
Turning to VhGlcNAcase (Vibrio harveyi; H373A), the Michaelis constant (Km) is on record as 307 ± 31 µM and the kcat was found to be 1.1 ± 0.06 s⁻¹.

The next data set addresses T1, VhGlcNAcase (Vibrio harveyi, UniProt D9ISE0, D437A).
T1 construct: full-length nag2 (residues 1-642) plus C-terminal RSRS-His6 (10 extra residues), pQE-60, E. coli M15 (pREP4); 74 kDa expected, 76 kDa by SEC; monomer; EC 3.2.1.52
As to the kind of experiment: colorimetric 4-nitrophenol release at […] nm, Michaelis-Menten fit. Format: biochemical. The note with it: 100 mM sodium phosphate pH 7.0, 37°C, 10 min, 0–500 µM substrate.
As for `CC(=O)N[C@H]1[C@H](Oc2ccc([N+](=O)[O-])cc2)O[C@H](CO)[C@@H](O)[C@@H]1O` [pNP-GlcNAc, 4-nitrophenyl N-acetyl-β-D-glucosaminide], the Km amounted to 390 ± 32 µM.

Substrate in the next data set: CC(=O)N[C@H]1[C@H](Oc2ccc([N+](=O)[O-])cc2)O[C@H](CO)[C@@H](O)[C@@H]1O
Briefly: purified protein. The note with it: 100 mM sodium phosphate pH 7.0, 37°C, 10 min, 0–500 µM substrate. This is another data set of the same source.
Consider B1, for which the Km was 92 ± 6 µM.
